Results reported in paper PMC10023946 (The Journal of Biological Chemistry, 2023).

Legend:
[1] = target: T1, cytochrome P450 17A1 (CYP17A1) (Homo sapiens, UniProt P05093); assay type: biochemical
T1 sequence (P05093 20-508): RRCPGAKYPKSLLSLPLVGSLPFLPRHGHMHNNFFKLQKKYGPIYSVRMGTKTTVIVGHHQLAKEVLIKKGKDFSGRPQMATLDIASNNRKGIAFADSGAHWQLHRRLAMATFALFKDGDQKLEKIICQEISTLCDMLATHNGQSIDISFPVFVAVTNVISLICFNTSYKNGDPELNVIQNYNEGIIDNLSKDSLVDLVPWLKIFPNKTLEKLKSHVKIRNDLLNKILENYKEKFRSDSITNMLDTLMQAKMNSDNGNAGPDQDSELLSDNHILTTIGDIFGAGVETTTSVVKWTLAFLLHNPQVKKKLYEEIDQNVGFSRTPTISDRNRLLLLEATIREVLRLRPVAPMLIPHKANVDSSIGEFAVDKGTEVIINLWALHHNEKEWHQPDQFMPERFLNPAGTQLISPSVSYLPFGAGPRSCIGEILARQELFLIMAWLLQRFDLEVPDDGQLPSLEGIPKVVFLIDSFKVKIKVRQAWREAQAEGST

CYP17A1 N52Y = target: T2, CYP17A1 N52Y (Homo sapiens, UniProt P05093, N52Y); experiment: X-ray co-crystal structure, […] Å; assay type: biochemical
T2 sequence (P05093 20-508 N52Y): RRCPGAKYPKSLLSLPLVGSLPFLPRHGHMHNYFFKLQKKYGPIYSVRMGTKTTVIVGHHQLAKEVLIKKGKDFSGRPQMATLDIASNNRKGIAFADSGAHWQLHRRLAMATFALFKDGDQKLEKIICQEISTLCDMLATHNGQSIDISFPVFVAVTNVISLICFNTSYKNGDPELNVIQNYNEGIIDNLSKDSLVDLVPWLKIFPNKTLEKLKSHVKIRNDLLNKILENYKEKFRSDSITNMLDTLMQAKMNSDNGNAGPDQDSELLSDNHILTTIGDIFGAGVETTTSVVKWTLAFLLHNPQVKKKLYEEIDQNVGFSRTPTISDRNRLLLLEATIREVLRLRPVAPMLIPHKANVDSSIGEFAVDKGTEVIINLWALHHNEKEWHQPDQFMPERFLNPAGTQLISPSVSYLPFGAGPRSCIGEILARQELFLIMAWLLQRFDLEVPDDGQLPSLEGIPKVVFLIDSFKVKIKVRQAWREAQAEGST

purified protein [2] = substrate: CC(=O)[C@H]1CC[C@H]2[C@@H]3CCC4=CC(=O)CC[C@]4(C)[C@H]3CC[C@]12C; experiment: purified protein
purified protein [3] = substrate: CC(=O)[C@@]1(O)CC[C@H]2[C@@H]3CC=C4C[C@@H](O)CC[C@]4(C)[C@H]3CC[C@@]21C; experiment: purified protein; conditions: heme displacement of heme-coordinated water

C[C@]12CC[C@H](O)CC1=CC[C@@H]1[C@@H]2CC[C@]2(C)C(c3cccnc3)=CC[C@@H]12 [abiraterone]
IC50 [1]: 0.069 ± 0.005 µM
IC50 (CYP17A1 N52Y): 0.051 ± 0.002 µM

B1: CYP17A1 N52Y (Homo sapiens; N52Y) (protein)
chain: RRCPGAKYPKSLLSLPLVGSLPFLPRHGHMHNYFFKLQKKYGPIYSVRMGTKTTVIVGHHQLAKEVLIKKGKDFSGRPQMATLDIASNNRKGIAFADSGAHWQLHRRLAMATFALFKDGDQKLEKIICQEISTLCDMLATHNGQSIDISFPVFVAVTNVISLICFNTSYKNGDPELNVIQNYNEGIIDNLSKDSLVDLVPWLKIFPNKTLEKLKSHVKIRNDLLNKILENYKEKFRSDSITNMLDTLMQAKMNSDNGNAGPDQDSELLSDNHILTTIGDIFGAGVETTTSVVKWTLAFLLHNPQVKKKLYEEIDQNVGFSRTPTISDRNRLLLLEATIREVLRLRPVAPMLIPHKANVDSSIGEFAVDKGTEVIINLWALHHNEKEWHQPDQFMPERFLNPAGTQLISPSVSYLPFGAGPRSCIGEILARQELFLIMAWLLQRFDLEVPDDGQLPSLEGIPKVVFLIDSFKVKIKVRQAWREAQAEGST
Km (purified protein [2]; heme displacement of heme-coordinated water): 1.60 ± 0.09 µM
Km (purified protein [3]): 0.6 ± 0.1 µM

B2: cytochrome P450 17A1 (CYP17A1) (Homo sapiens) (protein)
chain: RRCPGAKYPKSLLSLPLVGSLPFLPRHGHMHNNFFKLQKKYGPIYSVRMGTKTTVIVGHHQLAKEVLIKKGKDFSGRPQMATLDIASNNRKGIAFADSGAHWQLHRRLAMATFALFKDGDQKLEKIICQEISTLCDMLATHNGQSIDISFPVFVAVTNVISLICFNTSYKNGDPELNVIQNYNEGIIDNLSKDSLVDLVPWLKIFPNKTLEKLKSHVKIRNDLLNKILENYKEKFRSDSITNMLDTLMQAKMNSDNGNAGPDQDSELLSDNHILTTIGDIFGAGVETTTSVVKWTLAFLLHNPQVKKKLYEEIDQNVGFSRTPTISDRNRLLLLEATIREVLRLRPVAPMLIPHKANVDSSIGEFAVDKGTEVIINLWALHHNEKEWHQPDQFMPERFLNPAGTQLISPSVSYLPFGAGPRSCIGEILARQELFLIMAWLLQRFDLEVPDDGQLPSLEGIPKVVFLIDSFKVKIKVRQAWREAQAEGST
Km (purified protein [2]; heme): 5.2 ± 0.5 µM
